Measured values reported in publication doi:10.1101/2023.04.17.536592 (bioRxiv, 2023).

T1: T. brucei histone H2A (Trypanosoma brucei brucei, UniProt Q57YA3 2-134)
T1 construct: also called Tb H2A
T1 sequence: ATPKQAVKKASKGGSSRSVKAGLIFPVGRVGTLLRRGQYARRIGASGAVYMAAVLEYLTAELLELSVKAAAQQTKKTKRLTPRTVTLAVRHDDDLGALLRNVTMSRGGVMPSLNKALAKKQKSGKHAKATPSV

B1: T. brucei histone H2B (natural protein, Trypanosoma brucei brucei)
chain: ATPKSTPAKTRKEAKKTRRQRKRTWNVYVSRSLRSINSQMSMTSRTMKIVNSFVNDLFERIAAEAATIVRVNRKRTLGARELQTAVRLVLPADLAKHAMAEGTKAVSHASS
notes: also called Tb H2B

Legend:
T. brucei histone H2A = target: T1, T. brucei histone H2A; assay: cryo-EM structure; details: both partners purified
T. brucei histone H2B = target: B1; assay: cryo-EM structure; details: both partners purified

Binder	binding result (T. brucei histone H2A)	binding result (T. brucei histone H2B)
B1	binds	–
T. brucei histone H4 (natural protein, also called Tb H4) not shown	–	binds
